Laboratory results taken from patent US20250051464A1 (IMMUNOME, published 2025).
Residue numbers refer to the chain shown, from its start.

Tests used:
[1] = target: T1, human EphA2 (ephrin receptor A2), on cells (human, UniProt P29317 24-976); experiment: flow cytometry binding on A549 cells
T1 construct: Used for HEK293 transfectants, A549 and other human tumor cell lines
Protocol: (§1) Surface binding of the antibodies to in vitro grown cell lines was assessed by flow cytometry. Tumor cells were detached from their culture plate using Versene and counted. Cells were staining in BSA-containing buffer with primary antibody for 30 minutes at 4° C. with shaking. Following, cells were washed and stained with secondary PE-labeled antibody for 30 minutes at 4° C. with shaking. Before analysis on an Intellicyt iQue3 scanner, cells were counterstained with DAPI. MedFI values from live, single cells was expressed as fold over isotype control.

[2] = target: T1, human EphA2 (ephrin receptor A2), on …; experiment: flow cytometry binding on A549 cells, MedFI
Protocol: as §1

hEphA2-clv395-534-Fc = target: T2, hEphA2-clv395-534-Fc (human, UniProt P29317 395-534); experiment: SPR Biacore, 25 C, EphA2-Fc captured by anti-human Fc, Fab as analyte, 1:1 Langmuir
T2 construct: Recombinant fragment representing a cleavage form
T2 sequence (P29317 395-534): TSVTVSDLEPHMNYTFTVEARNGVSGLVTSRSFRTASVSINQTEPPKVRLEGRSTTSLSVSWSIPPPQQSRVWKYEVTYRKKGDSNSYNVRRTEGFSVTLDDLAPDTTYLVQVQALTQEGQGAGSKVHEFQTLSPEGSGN
Protocol: (§2) The hEphA2-Fc fusions were captured with an anti-human Fc immobilized to a CM5 chip. Biacore® assays were conducted at 25° C. using HBS-EP+ buffer (0.01 M HEPES pH 7.4, 0.15 M NaCl, 3 mM EDTA, 0.005% v/v Surfactant P20). Data was double-reference subtracted and data was analyzed using 1:1 Langmuir binding model and steady-state model in Biacore Evaluation software.
(§3) Binding to hEphA2-ECD-Fc tested using 100, 300, and 900 nM analyte. Binding to all other ligands tested using 33.3, 100, and 300 nM analyte.

hEphA2-clv432-534-Fc = target: T3, hEphA2-clv432-534-Fc (human, UniProt P29317 432-534); experiment: as above
T3 construct: Recombinant fragment representing a cleavage form
T3 sequence (P29317 432-534): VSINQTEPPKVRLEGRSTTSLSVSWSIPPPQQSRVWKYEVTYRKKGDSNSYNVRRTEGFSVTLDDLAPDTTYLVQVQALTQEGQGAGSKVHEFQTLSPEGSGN
Protocol: as §2, §3

hEphA2-clv385-534-Fc = target: T4, hEphA2-clv385-534-Fc (human, UniProt P29317 385-534); experiment: as above
T4 construct: Recombinant fragment representing a cleavage form
T4 sequence (P29317 385-534): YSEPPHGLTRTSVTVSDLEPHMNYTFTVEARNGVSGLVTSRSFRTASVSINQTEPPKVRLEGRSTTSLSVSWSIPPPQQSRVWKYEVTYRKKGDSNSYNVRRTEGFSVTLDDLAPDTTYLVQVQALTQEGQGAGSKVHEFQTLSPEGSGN
Protocol: as §2, §3

hEphA2-clv435-534-Fc = target: T5, hEphA2-clv435-534-Fc (human, UniProt P29317 435-534); experiment: as above
T5 construct: Recombinant fragment representing a cleavage form
T5 sequence (P29317 435-534): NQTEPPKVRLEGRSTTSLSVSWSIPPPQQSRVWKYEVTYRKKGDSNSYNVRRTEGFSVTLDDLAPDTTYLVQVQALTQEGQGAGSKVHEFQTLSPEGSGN
Protocol: as §2, §3

hEphA2-FN12-(327-534)-Fc = target: T6, hEphA2-FN12-(327-534)-Fc (human, UniProt P29317 327-534); experiment: as above
T6 construct: Captured by anti-human Fc on a CM5 chip; also called FN1-FN2 domains of EphA2 fused to human Fc
T6 sequence (P29317 327-534): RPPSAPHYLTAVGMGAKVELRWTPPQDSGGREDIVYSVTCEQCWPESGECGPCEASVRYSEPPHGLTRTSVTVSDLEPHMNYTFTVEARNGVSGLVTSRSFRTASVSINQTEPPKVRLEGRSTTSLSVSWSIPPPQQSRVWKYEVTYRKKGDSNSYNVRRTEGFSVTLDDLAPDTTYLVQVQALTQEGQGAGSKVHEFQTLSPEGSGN
Protocol: as §2, §3

hEphA2-FN2-(437-534)-Fc = target: T7, hEphA2-FN2-(437-534)-Fc (human, UniProt P29317 437-534); experiment: as above
T7 construct: Captured by anti-human Fc on a CM5 chip; also called FN2 domain of EphA2 fused to human Fc
T7 sequence (P29317 437-534): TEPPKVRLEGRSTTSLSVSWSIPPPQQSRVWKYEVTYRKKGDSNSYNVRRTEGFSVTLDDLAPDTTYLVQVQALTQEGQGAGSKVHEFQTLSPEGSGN
Protocol: as §2, §3

[3] = target: T8, C-terminally His-tagged hEphA2-FN2 (Thr437-Asn534+His tag) (human, UniProt P29317 437-534); experiment: SPR Biacore T200, 25 C, mIgG2a captured by anti-mouse Fc, FN2-His as analyte, steady-state fit, monovalent
T8 construct: SPR analyte; also called FN2 domain of hEphA2
T8 sequence (P29317 437-534 limits assumed): as the sequence (P29317 437-534) above
Protocol: Binding of antibodies to the FN2 domain of hEphA2 was measured using the Biacore® T200 SPR system at 25° C. using HBS-EP+ buffer (0.01 M HEPES pH 7.4, 0.15 M NaCl, 3 mM EDTA, 0.005% v/v Surfactant P20). Antibodies in mIgG2a format were captured at levels between 475-715 RU via an anti-mouse Fc antibody immobilized to a CM5 chip. Binding was assessed using a titration of C-terminally His-tagged hEphA2-FN2 (Thr437-Asn534+His tag) associated for 30 s or 75 s at 30 uL/min. Data was double-reference subtracted using both a surface without captured antibody and from injections of HBS-EP+ buffer. The equilibrium response was measured at 4 seconds before the end of association with a window of 5 seconds and fit using the Biacore T200 Evaluation Software 3.1 with the Steady State Affinity Model.

[4] = target: T8, C-terminally His-tagged hEphA2-FN2 …; experiment: SPR Biacore T200, 25 C, mIgG2a as ligand, FN2-His as analyte, 1:1 Langmuir
Protocol: Binding of EphA2 antibodies to the FN2 domain of hEphA2 was measured using the Biacore® T200 SPR system. Biacore® assays were conducted at 25° C. using HBS-EP+ buffer (0.01 M HEPES pH 7.4, 0.15 M NaCl, 3 mM EDTA, 0.005% v/v Surfactant P20) using the FN2 domain as the analyte with the antibodies in mIgG2a format as the immobilized ligand. Data was analyzed using 1:1 Langmuir binding model and steady-state model in Biacore Evaluation software.
C-terminally His-tagged human EphA2 FN2 domain (Thr437-Asn534+His tag) was used as the analyte. The analyte was associated for 120 seconds and dissociated for 100 seconds or 300 seconds at 30 uL/min.

[5] = target: T9, Human EphA2 (ephrin receptor A2) (human, UniProt P29317 24-976); experiment: IHC/IF score on frozen human tumor tissue, STS
T9 construct: Endogenous protein in frozen human tumor tissue and tumor adjacent tissue, not a recombinant construct
T9 sequence (P29317 24-976 limits assumed): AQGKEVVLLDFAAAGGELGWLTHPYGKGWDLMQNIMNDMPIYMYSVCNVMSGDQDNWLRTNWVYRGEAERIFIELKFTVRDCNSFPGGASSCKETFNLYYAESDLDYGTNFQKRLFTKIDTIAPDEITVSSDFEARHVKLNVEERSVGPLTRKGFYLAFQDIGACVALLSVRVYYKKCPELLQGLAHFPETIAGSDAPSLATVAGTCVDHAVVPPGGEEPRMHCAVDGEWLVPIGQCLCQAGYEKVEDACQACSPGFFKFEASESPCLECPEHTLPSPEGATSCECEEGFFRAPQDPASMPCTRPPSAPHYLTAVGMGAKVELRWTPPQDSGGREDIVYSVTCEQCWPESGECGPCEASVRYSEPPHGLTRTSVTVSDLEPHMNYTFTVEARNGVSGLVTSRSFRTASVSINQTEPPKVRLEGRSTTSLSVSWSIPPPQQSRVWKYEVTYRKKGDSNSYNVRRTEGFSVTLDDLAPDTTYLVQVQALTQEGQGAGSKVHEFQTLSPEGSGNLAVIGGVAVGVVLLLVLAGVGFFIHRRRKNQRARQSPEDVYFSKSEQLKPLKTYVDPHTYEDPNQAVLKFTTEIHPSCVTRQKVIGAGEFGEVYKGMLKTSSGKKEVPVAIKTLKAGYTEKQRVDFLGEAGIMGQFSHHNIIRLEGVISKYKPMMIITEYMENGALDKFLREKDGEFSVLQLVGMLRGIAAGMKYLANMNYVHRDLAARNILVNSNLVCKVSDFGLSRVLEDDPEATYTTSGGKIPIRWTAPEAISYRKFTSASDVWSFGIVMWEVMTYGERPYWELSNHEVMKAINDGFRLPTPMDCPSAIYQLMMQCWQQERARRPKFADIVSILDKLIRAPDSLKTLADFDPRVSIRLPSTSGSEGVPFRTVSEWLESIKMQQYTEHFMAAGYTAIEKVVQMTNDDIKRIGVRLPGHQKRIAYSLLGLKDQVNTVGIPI

[6] = target: T9, Human EphA2 (ephrin receptor A2); experiment: IHC/IF score on frozen human tumor tissue, UCEC-endometriod
[7] = target: T9, Human EphA2 (ephrin receptor A2); experiment: IHC/IF score on frozen human tumor tissue, CRC
[8] = target: T9, Human EphA2 (ephrin receptor A2); experiment: IHC/IF score on frozen human tumor tissue, NSCLC-Adeno
[9] = target: T9, Human EphA2 (ephrin receptor A2); experiment: IHC/IF score on frozen human tumor tissue, ESC
[10] = target: T9, Human EphA2 (ephrin receptor A2); experiment: IHC/IF score on frozen human tumor tissue, ER+ BRC
[11] = target: T9, Human EphA2 (ephrin receptor A2); experiment: IHC/IF score on frozen human tumor tissue, URO
[12] = target: T9, Human EphA2 (ephrin receptor A2); experiment: IHC/IF score on frozen human tumor tissue, TNBC
[13] = target: T9, Human EphA2 (ephrin receptor A2); experiment: IHC/IF score on frozen human tumor tissue, GAC
[14] = target: T9, Human EphA2 (ephrin receptor A2); experiment: IHC/IF score on frozen human tumor tissue, NSCLC-SQ
[15] = target: T9, Human EphA2 (ephrin receptor A2); experiment: IHC/IF score on frozen human tumor tissue, OVA
[16] = target: T9, Human EphA2 (ephrin receptor A2); experiment: IHC/IF score on frozen human tumor tissue, PROC
[17] = target: T9, Human EphA2 (ephrin receptor A2); experiment: IHC/IF score on frozen human tumor tissue, PANC
[18] = target: T9, Human EphA2 (ephrin receptor A2); experiment: IHC/IF score on frozen human tumor tissue, UCEC-clear cell
[19] = target: T9, Human EphA2 (ephrin receptor A2); experiment: IHC/IF score on frozen human tumor tissue, MELA
[20] = target: T9, Human EphA2 (ephrin receptor A2); experiment: IHC/IF score on frozen human tumor tissue, Her2+ BRC
[21] = target: T9, Human EphA2 (ephrin receptor A2); experiment: IHC/IF score on frozen human tumor tissue, ANC
[22] = target: T9, Human EphA2 (ephrin receptor A2); experiment: IHC/IF score on frozen human tumor tissue, RCC-clear cell
[23] = target: T9, Human EphA2 (ephrin receptor A2); experiment: IHC/IF score on frozen human tumor tissue, RCC-papillary
[24] = target: T9, Human EphA2 (ephrin receptor A2); experiment: IHC/IF score on frozen human tumor tissue, HNC
[25] = target: T9, Human EphA2 (ephrin receptor A2); experiment: IHC/IF score on frozen human tumor tissue, UCEC-papillary
[26] = target: T1, human EphA2 (ephrin receptor A2), on …; experiment: flow cytometry on A549 cells
Protocol: as §1

[27] = target: T1, human EphA2 (ephrin receptor A2), on …; experiment: flow cytometry on A549 cells, EC50 column

T1 sequence (P29317 24-976 limits assumed): as above

B1: AB-009806 (antibody, mouse IgG2a, V domains shown)
VH: QVQLQQWGAGLLKPSETLSLTCAVYGGSFSDYYWSWIRQPPGKGLEWIGEINHSGSTNYNPSLKSRVTISVDPSKNQFSLKLTSVTAADTAVYYCAKPFRPHCTNGVCYSGDAFDIWGQGTMVTVSS
VL: SYVLTQPPSVSVAPGQTARITCGGNNIGTKNVHWYQQKPGQAPVLVVYDDSDRPSGIPEQFSGSNSGNTATLTISRVEAGDEADYYCQVWDSSSDHLVFGGGTKLTVL
Flow Delta activity (MedFI) [1]: 231000 MedFI
EC50 (read off the curve) [2]: ~20 nM

B2: AB-010699 human Fab fragment (Fab, V domains shown)
VH: QVQLQQWGAGLLKPSETLSLTCAVYGGSFSGYYWSWIRQPPGKGLEWIGEINHRGSINYNNYNPSLKSRVTISVDTSKNQFSLKLSSVTAADTAVYYCAKPLRPHCINGVCYSGDAFDIWGQGTMVTVAS
VL: B1 VL with T29Y, Q60R, S92H, L97V
notes: Human Fab fragment
Kd (hEphA2-clv395-534-Fc): 12 nM
koff (hEphA2-clv395-534-Fc): 0.07 s⁻¹
kon (hEphA2-clv395-534-Fc): 5.72e+06 M⁻¹ s⁻¹
Kd (hEphA2-clv432-534-Fc): 9.6 nM
koff (hEphA2-clv432-534-Fc): 0.075 s⁻¹
kon (hEphA2-clv432-534-Fc): 7.78e+06 M⁻¹ s⁻¹
Kd (hEphA2-clv385-534-Fc): 12 nM
koff (hEphA2-clv385-534-Fc): 0.072 s⁻¹
kon (hEphA2-clv385-534-Fc): 6.05e+06 M⁻¹ s⁻¹
Kd (hEphA2-clv435-534-Fc): 9.3 nM
koff (hEphA2-clv435-534-Fc): 0.078 s⁻¹
kon (hEphA2-clv435-534-Fc): 8.42e+06 M⁻¹ s⁻¹
Kd (hEphA2-FN12-(327-534)-Fc): 8.6 nM
koff (hEphA2-FN12-(327-534)-Fc): 0.043 s⁻¹
kon (hEphA2-FN12-(327-534)-Fc): 5e+06 M⁻¹ s⁻¹
Kd (hEphA2-FN2-(437-534)-Fc): 8.6 nM
koff (hEphA2-FN2-(437-534)-Fc): 0.085 s⁻¹
kon (hEphA2-FN2-(437-534)-Fc): 1e+07 M⁻¹ s⁻¹

B3: AB-010699 (mIgG2a format) (antibody, V domains shown)
VH: B2 VH
VL: B1 VL with T29Y, Q60R, S92H, L97V
notes: Tested with mouse IgG2a constant regions (mIgG2a format)
Kd [3]: 18.9 nM
Kd [4]: 19 nM
koff [4]: 0.075 s⁻¹
kon [4]: 3.9e+06 M⁻¹ s⁻¹

B4: AB-009816 (antibody, mouse IgG2a, V domains shown)
VH: B2 VH with G31D, I51V, T76A, S86T, I107T
VL: B1 VL with T29S
IHC score [5]: 2
IHC score [6]: 1
IHC score [7]: 1
IHC score [8]: 2
IHC score [9]: 2
IHC score [10]: 1
IHC score [11]: 1
IHC score [12]: 1
IHC score [13]: 2
IHC score [14]: 1
IHC score [15]: 2
IHC score [16]: 1
IHC score [17]: 1
IHC score [18]: 2
IHC score [19]: 2
IHC score [20]: 2
IHC score [21]: 2
IHC score [22]: 1
IHC score [23]: 1
IHC score [24]: 2
IHC score [25]: 2

B5: AB-009817 (antibody, mouse IgG2a, V domains shown)
VH: B2 VH with G31D, I51V, T76P, S86T, I107T, G109A
VL: B1 VL with T29S
Delta (flow) [26]: 0
binding result [27]: no binding
